Measurements reported in patent publication US20040171074A1, “Structures of substrate binding pockets of SCF complexes” (MOUNT SINAI HOSPITAL, priority 2002, published 2004).
“Also recorded” adds a separate entry of the source.

B1: R443A: mutant cdc4 polypeptide (protein)
chain: MGSFPLAEFPLRDIPVPYSYRVSGGIASSGSVTALVTAAGTHRNSSTAKTVETEDGEEDIDEYQRKRAAGSGESTPERSDFKRVKHDNHKTLHPVNLQNTGAASVDNDGLHNLTDISNDAEKLLMSVDDGSAAPSTLSVNMGVASHNVAAPTTVNAATITGSDVSNNVNSATINNPMEEGALPLSPTASSPGTTTPLAKTTKTINNNNNIADLIESKDSIISPEYLSDEIFSAINNNLPHAYFKNLLFRLVANMDRSELSDLGTLIKDNLKRDLITSLPFEISLKIFNYLQFEDIINSLGVSQNWNKIIRKSTSLWKKLLISENFVSPKGFNSLNLKLSQKYPKLSQQDRLRLSFLENIFILKNWYNPKFVPQRTTLRGHMTSVITCLQFEDNYVITGADDKMIRVYDSINKKFLLQLSGHDGGVWALKYAHGGILVSGSTDATVRVWDIKKGCCTHVFKGHNSTVRCLDIVEYKNIKYIVTGSRDNTLHVWKLPKESSVPDHGEEHDYPLVFHTPEENPYFVGVLRGHMASVRTVSGHGNIVVSGSYDNTLIVWDVAQMKCLYILSGHTDRIYSTIYDHERKRCISASMDTTIRIWDLENIWNNGECSYATNSASPCAKILGAMYTLQGHTALVGLLRLSDKFLVSAAADGSIRGWDANDYSRKFSYHHTNLSAITTFYVSDNILVSGSENQFNIYNLRSGKLVHANILKDADQIWSVNFKGKTLVAAVEKDGQSFLEILDFSKASKINYVSNPVNSSSSSLESISTSLGLTRTTIIP
B2: K402A: mutant cdc4 polypeptide (protein)
chain: MGSFPLAEFPLRDIPVPYSYRVSGGIASSGSVTALVTAAGTHRNSSTAKTVETEDGEEDIDEYQRKRAAGSGESTPERSDFKRVKHDNHKTLHPVNLQNTGAASVDNDGLHNLTDISNDAEKLLMSVDDGSAAPSTLSVNMGVASHNVAAPTTVNAATITGSDVSNNVNSATINNPMEEGALPLSPTASSPGTTTPLAKTTKTINNNNNIADLIESKDSIISPEYLSDEIFSAINNNLPHAYFKNLLFRLVANMDRSELSDLGTLIKDNLKRDLITSLPFEISLKIFNYLQFEDIINSLGVSQNWNKIIRKSTSLWKKLLISENFVSPKGFNSLNLKLSQKYPKLSQQDRLRLSFLENIFILKNWYNPKFVPQRTTLRGHMTSVITCLQFEDNYVITGADDAMIRVYDSINKKFLLQLSGHDGGVWALKYAHGGILVSGSTDRTVRVWDIKKGCCTHVFKGHNSTVRCLDIVEYKNIKYIVTGSRDNTLHVWKLPKESSVPDHGEEHDYPLVFHTPEENPYFVGVLRGHMASVRTVSGHGNIVVSGSYDNTLIVWDVAQMKCLYILSGHTDRIYSTIYDHERKRCISASMDTTIRIWDLENIWNNGECSYATNSASPCAKILGAMYTLQGHTALVGLLRLSDKFLVSAAADGSIRGWDANDYSRKFSYHHTNLSAITTFYVSDNILVSGSENQFNIYNLRSGKLVHANILKDADQIWSVNFKGKTLVAAVEKDGQSFLEILDFSKASKINYVSNPVNSSSSSLESISTSLGLTRTTIIP
B3: Y574F: mutant cdc4 polypeptide (protein)
chain: MGSFPLAEFPLRDIPVPYSYRVSGGIASSGSVTALVTAAGTHRNSSTAKTVETEDGEEDIDEYQRKRAAGSGESTPERSDFKRVKHDNHKTLHPVNLQNTGAASVDNDGLHNLTDISNDAEKLLMSVDDGSAAPSTLSVNMGVASHNVAAPTTVNAATITGSDVSNNVNSATINNPMEEGALPLSPTASSPGTTTPLAKTTKTINNNNNIADLIESKDSIISPEYLSDEIFSAINNNLPHAYFKNLLFRLVANMDRSELSDLGTLIKDNLKRDLITSLPFEISLKIFNYLQFEDIINSLGVSQNWNKIIRKSTSLWKKLLISENFVSPKGFNSLNLKLSQKYPKLSQQDRLRLSFLENIFILKNWYNPKFVPQRTTLRGHMTSVITCLQFEDNYVITGADDKMIRVYDSINKKFLLQLSGHDGGVWALKYAHGGILVSGSTDRTVRVWDIKKGCCTHVFKGHNSTVRCLDIVEYKNIKYIVTGSRDNTLHVWKLPKESSVPDHGEEHDYPLVFHTPEENPYFVGVLRGHMASVRTVSGHGNIVVSGSYDNTLIVWDVAQMKCLYILSGHTDRIFSTIYDHERKRCISASMDTTIRIWDLENIWNNGECSYATNSASPCAKILGAMYTLQGHTALVGLLRLSDKFLVSAAADGSIRGWDANDYSRKFSYHHTNLSAITTFYVSDNILVSGSENQFNIYNLRSGKLVHANILKDADQIWSVNFKGKTLVAAVEKDGQSFLEILDFSKASKINYVSNPVNSSSSSLESISTSLGLTRTTIIP

Tests used:
[1] = test system: phospho-Sic1; assay: P-Sic1 pull down: in vitro capture of phospho-Sic1 on immobilized wild type or mutant Cdc4-GST-Skp1, anti-Sic1 immunoblot; assay type: binding, yeast; conditions: Sic1 phosphorylated with Cln2-Cdc28, captured onto GST-Skp1/Cdc4 resin, anti-Sic1 detection
Protocol: (§1) Mutational analysis of the CPD binding surface. Mutants were tested in vitro by ability to bind phosphorylated Sic1 and then captured onto GST-Skp1/Cdc4 resin and detected with anti-sic1 antibody. Mutants were tested in vivo by ability to degrade GAL1-SIC1 or various phosphorylation mutants. Sites are as follows: 3=Thr 33, Thr 45, Ser 76; 4=Thr 5, Thr 33, Thr 45, Ser 76; 5=Thr 2, Thr 5, Thr 33, Thr 45, Ser 76; 6=Thr 2, Thr 5, Thr 33, Thr 45, Ser 69, Ser 76; 7=Thr 2, Thr 5, Thr 33, Thr 45, Ser 69, Ser 76, Ser 80. GAL1-SIC1 plasmids were transformed into a cdc4Δ strain containing a copy of CDC4 on a TRP1 ARS CEN plasmid. Strains were incubated for 2 days at 30° C.
Bacterially expressed His6-Sic1 was phosphorylated with Cln2-Cdc28 kinase purified from baculovirus infected Sf9 cells as described before (Nature paper). 1 ug of WT or mutant Cdc4-GST-Skp1, immoblized on GSH-Sepharose resin, was incubated with 0.5 ug phospho-Sic1 at 4 C for 1 h and washed 4 times. Captured complexes were resolved on SDS-PAGE and Sic1 visualized by anti-Sic1 Western blotting and ECL. For IEF-2D analysis, several Sic1 phosphorylation reactions were carried out for different time periods to obtain a spectrum of Sic1 that were phosphorylated at different numbers of its nine CDK sites. This pool of phospho-Sic1 (2.5 ug) was incubated with 5 μg of WT or mutant Cdc4-GST-Skp1 as described above. Different phosphorylation states of Sic1 were separated by denaturing isoelectric focusing (IEF)-2D gel electrophoresis and visualized by anti-Sic1 Western blotting and ECL. IEF was performed using pH 3-10NL Immobiline gel strips and IPGphore IEF system (Amersham pharmacia).
(§2) Cdc4 functional assays. CDC4 mutant alleles were assessed for complementation of a cdc4A strain in a plasmid shuffle assay (Nash et al., 2001). Sensitivity to SIC1 dosage was determined by transformation with pMT837 (GAL1-SIC1) or pMT767 (GAL1-SIC1^T33V) and plating on glucose medium or galactose medium. For in vitro capture of phospho-Sic1 by Cdc4, 0.5 μg of bacterially-expressed ^HIS6Sic1 was phosphorylated with immobilized Cln2-Cdc28 kinase from baculovirus-infected Sf9 cells and then incubated with 1 μg of immobilized wild type or mutant Cdc4^263-744-GST-Skp1, at 4° C. for 1 hr, washed 4 times and visualized by anti-Sic1 immunoblot. For isoelectric focusing (IEF)-2D gel analyses, an evenly distributed pool of phospho-Sic1 isoforms was generated by combining different time points in a Sic1 phosphorylation reaction. 2.5 μg of the phospho-Sic1 pool was bound to 5 μg of immobilized wild type or mutant Cdc4^1-744-GST-Skp1. Captured isoforms were separated by denaturing IEF-2D gel electrophoresis using pH3-10NL Immobiline gel strips (Amersham) and visualized by anti-Sic1 immunoblot. Alternatively, the pool of phospho-Sic1 isoforms was incubated in solution with a ubiquitination reaction mix containing ATP, ubiquitin, yeast E1, Cdc34 and either wild type or mutant SCF^Cdc4 complex, composed of a 1:1 ratio of bacterial Cdc4-GST-Skp1 and insect cell-produced Cdc53-Rbx1, at 30° C. for 1 h as previously described (Nash et al., 2001).

[2] = test system: cdc4Δ strain; assay: plasmid shuffle assay: complementation of a cdc4Δ strain by CDC4 alleles; assay type: cell-based, yeast; conditions: viability of cdc4Δ strain on 5-FOA, 2 days at 30° C.
Protocol: (§3) All mutants on a TRP1 ARS CEN plasmid were transformed into a cdc4Δ strain (MT 1259) containing a wildtype copy of CDC4 on a URA3 ARS CEN plasmid. Cells were plated on either Trp^−Ura^− or 5-FOA medium for 2 days at 30° C. Viable cells on 5-FOA were grown in Trp medium and transformed with either wild type GAL1-SIC1, GAL1-SIC T45A, or GAL1-SIC T33V on a LEU2 ARS CEN pasmid. Cells were then plated on Leu- Trp-plates containing either glucose or galactose and incubated for 2 days at 30° C.
as §2

[3] = test system: cdc4Δ strain overexpressing SIC1; assay: sensitivity to SIC1 dosage: GAL1-SIC1 overexpression in strains bearing CDC4 alleles; assay type: cell-based, yeast; conditions: for gal Sic1T33V: GAL1-SIC1 T33V (partially stabilized Sic1); for gal Sic1T33V / gal Sic1T45A / gal Sic1 wt: galactose, 2 days at 30° C.; for gal Sic1T45A: GAL1-SIC1 T45A; for gal Sic1 wt: GAL1-SIC1 wild type; for viability / sensitivity to increased SIC1 dosage: Sic1 wt or stabilized Sic1(T33V) or Sic1(T45A) over-expressed under a galactose promoter
Protocol: as §1, §3
Since the cell viability assay nay be masking subtle functional roles for the conserved Cdc4 residues, function was assayed in vivo under more stringent conditions in which Sic1 wt or the stabilized mutants, Sic1 (T33V) or Sic1(T45A) are over-expressed under a galactose promoter. This should amplify defects in cdc4 function. Under these conditions, Trp 717, Tyr 548 and the double mutant K404D/R443D are lethal showing that these residues are in fact important for functions
as §2

Molecule | P-Sic1 pull down [1] | P-Sic1 pull down ([1]; listed as Arg443Ala) | shuffle [2] | shuffle ([2]; listed as Arg443Ala) | gal Sic1T33V [3] | gal Sic1T45A [3] | gal Sic1 wt [3] | viability / sensitivity to increased SIC1 dosage [3] | P-Sic1 pull down ([1]; listed as Lys402Ala) | shuffle ([2]; listed as Lys402Ala) | P-Sic1 pull down ([1]; listed as Tyr574Ala) | P-Sic1 pull down ([1]; listed as Tyr574Phe) | shuffle ([2]; listed as Tyr574Ala) | shuffle ([2]; listed as Tyr574Phe)
B1 | bind | fully competent; also recorded: indistinguishable from wild type | alive | viable; also recorded: indistinguishable from wild type | alive | dead | alive | indistinguishable from wild type |  |  |  |  |  | 
B2 | bind |  | alive |  | alive | dead | alive | indistinguishable from wild type | fully competent; also recorded: indistinguishable from wild type | viable; also recorded: indistinguishable from wild type |  |  |  | 
B3 | bind |  | alive |  | alive | dead | alive | indistinguishable from wild type |  |  | fully competent | indistinguishable from wild type | viable | indistinguishable from wild type
